The record followed here is publication PMC8822709 (Journal of Biomedical Science, 2022).

One test has as its target T1, PEG-precipitated EV-A71 (Enterovirus A71, stock strain …, UniProt Q9DY01).
T1 construct: also called EV-A71 protein; EV-A71 capsid proteins; source: PEG-precipitated EV-A71 (virus propagated in RD cells)
The experiment in a line: ELISA. As to conditions: both partners purified. On the technique in general: In an ELISA, binding on a coated surface is turned into a signal by an enzyme label.

The target in test [1] is T2, ENO1 (Alpha-enolase), endogenous in RD cells (Homo sapiens (RD cells), UniProt P06733).
T2 construct: also called α-enolase
T2 sequence (P06733 whole entry): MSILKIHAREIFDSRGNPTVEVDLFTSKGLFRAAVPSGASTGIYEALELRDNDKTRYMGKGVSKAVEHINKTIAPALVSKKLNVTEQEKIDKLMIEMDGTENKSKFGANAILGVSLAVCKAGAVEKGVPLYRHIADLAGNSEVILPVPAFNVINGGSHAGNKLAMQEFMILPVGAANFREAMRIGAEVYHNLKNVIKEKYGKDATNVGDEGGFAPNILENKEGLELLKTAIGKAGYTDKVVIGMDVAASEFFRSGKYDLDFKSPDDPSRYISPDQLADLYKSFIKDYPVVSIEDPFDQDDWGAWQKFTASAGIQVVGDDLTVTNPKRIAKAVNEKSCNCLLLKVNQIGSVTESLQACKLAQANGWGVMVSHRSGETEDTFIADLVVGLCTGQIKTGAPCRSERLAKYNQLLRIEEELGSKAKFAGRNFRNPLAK
As to the kind of experiment: affinity purification with mass spectrometry. As to conditions: one partner purified.

The target of test [2] is T3, ENO1 recombinant protein (α-enolase) (Homo sapiens, UniProt P06733).
T3 construct: also called hENO1; rhENO1; source: recombinant protein
T3 sequence (P06733 whole entry): as above
As to the kind of experiment: ELISA; indirect ELISA; recombinant protein (5 μg/mL) coated in carbonate-bicarbonate pH 9.6, 07-IgG1 diluted and added at 37 °C for 1 h, HRP goat anti-human IgG, OD 450 nm. As to conditions: both partners purified.

B1: 07-human IgG1 antibody (antibody, V domains shown)
VH: EVQLLESGAVVKKPGESLKISCTGSGYVFRDYWVGWVRQMPGKGLEWLGMIYPDEFDIRYSPSFQGQVTISADKSIDTAYLQLSSLEASDTGIYYCARHGNTGCGGTMCYKSYLYYGMDVWGQGTTVTVS
VL: ELVLTQSPSVSVSPGQTASITCSGDKLGDKYACWYQQKPGQSPVLVIYQDNKRPSGIPERFSGSNSGNTATLTISGTRAMDEADYYCQAWDSSTCYVFGTGTKLTVL
notes: also called 07-IgG1; clone 07 recombinant antibody; source: ExpiCHO, co-transfected (pcDNA3.4 heavy and light chain), purified by protein A resin
B1: the binding result in the test with PEG-precipitated EV-A71 was “no binding”; in test [1] it was “binds”; in test [2], “binds”.
